The target of one data set is T1, Tmm7211 (Candidatus Pelagibacter sp. HTCC7211, UniProt B6BQB2).
T1 construct: gene tmm; full-length synthesized gene (1335 bp, 444 residues, 52 kDa), N-terminal His tag (pET28a), E. coli BL21(DE3); Ni-NTA and Superdex-200
T1 sequence (B6BQB2 1-444): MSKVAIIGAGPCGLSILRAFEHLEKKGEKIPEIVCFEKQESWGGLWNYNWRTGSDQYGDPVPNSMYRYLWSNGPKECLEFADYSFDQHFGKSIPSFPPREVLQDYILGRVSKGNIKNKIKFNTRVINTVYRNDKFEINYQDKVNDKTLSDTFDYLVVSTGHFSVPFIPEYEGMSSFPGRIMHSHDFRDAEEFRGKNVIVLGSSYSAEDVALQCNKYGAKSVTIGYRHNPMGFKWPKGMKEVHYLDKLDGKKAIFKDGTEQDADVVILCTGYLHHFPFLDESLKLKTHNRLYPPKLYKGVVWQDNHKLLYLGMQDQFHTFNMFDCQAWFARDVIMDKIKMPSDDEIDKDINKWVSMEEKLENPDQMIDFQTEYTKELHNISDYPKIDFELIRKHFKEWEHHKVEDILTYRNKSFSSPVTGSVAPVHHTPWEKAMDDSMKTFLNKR
As to the kind of experiment: X-ray crystal structure, […] Å. In kind it is binding.

Substrate in the data set “purified protein”: NC(=O)C1=CN([C@@H]2O[C@H](COP(=O)(O)OP(=O)(O)OC[C@H]3O[C@@H](n4cnc5c(N)ncnc54)[C@H](OP(=O)(O)O)[C@@H]3O)[C@@H](O)[C@H]2O)C=CC1
Description: purified protein. In kind it is biochemical, Candidatus Pelagibacter sp. HTCC7211. As to conditions: 1 mM DMS, 1.5 μM enzyme.

The record followed here is PMC8498191, “Structural and Mechanistic Insights Into Dimethylsulfoxide Formation Through Dimethylsulfide Oxidation” (Frontiers in Microbiology, 2021).

In the case of `Cc1cc2nc3c(=O)[nH]c(=O)nc-3n(C[C@H](O)[C@H](O)[C@H](O)COP(=O)(O)OP(=O)(O)OC[C@H]3O[C@@H](n4cnc5c(N)ncnc54)[C@H](O)[C@@H]3O)c2cc1C` [FAD], the “X-ray crystal structure, 1.8 Å” value on Tmm7211 (FAD bound during expression in E. coli) is “the NADP^+ and FAD molecules can be clearly observed in the structure”.
In the case of `NC(=O)c1ccc[n+]([C@@H]2O[C@H](COP(=O)(O)OP(=O)(O)OC[C@H]3O[C@@H](n4cnc5c(N)ncnc54)[C@H](OP(=O)(O)O)[C@@H]3O)[C@@H](O)[C@H]2O)c1` [NADP^+], at Tmm7211 (crystallised with 5 mM NADPH), the “X-ray crystal structure, 1.8 Å” value is “the NADP^+ and FAD molecules can be clearly observed in the structure”.

B1: Tmm7211 (Candidatus Pelagibacter sp. HTCC7211; D314A) (protein)
chain: MSKVAIIGAGPCGLSILRAFEHLEKKGEKIPEIVCFEKQESWGGLWNYNWRTGSDQYGDPVPNSMYRYLWSNGPKECLEFADYSFDQHFGKSIPSFPPREVLQDYILGRVSKGNIKNKIKFNTRVINTVYRNDKFEINYQDKVNDKTLSDTFDYLVVSTGHFSVPFIPEYEGMSSFPGRIMHSHDFRDAEEFRGKNVIVLGSSYSAEDVALQCNKYGAKSVTIGYRHNPMGFKWPKGMKEVHYLDKLDGKKAIFKDGTEQDADVVILCTGYLHHFPFLDESLKLKTHNRLYPPKLYKGVVWQDNHKLLYLGMQAQFHTFNMFDCQAWFARDVIMDKIKMPSDDEIDKDINKWVSMEEKLENPDQMIDFQTEYTKELHNISDYPKIDFELIRKHFKEWEHHKVEDILTYRNKSFSSPVTGSVAPVHHTPWEKAMDDSMKTFLNKR
notes: full-length synthesized gene (1335 bp, 444 residues, 52 kDa), N-terminal His tag (pET28a), E. coli BL21(DE3); Ni-NTA and Superdex-200
In the case of B1, in “purified protein”, the Km stood at 32.0 ± 0.6 µM and the kcat was 0.035 ± 0.00167 s⁻¹.

B2: Tmm7211 (Candidatus Pelagibacter sp. HTCC7211; R409A) (protein)
chain: MSKVAIIGAGPCGLSILRAFEHLEKKGEKIPEIVCFEKQESWGGLWNYNWRTGSDQYGDPVPNSMYRYLWSNGPKECLEFADYSFDQHFGKSIPSFPPREVLQDYILGRVSKGNIKNKIKFNTRVINTVYRNDKFEINYQDKVNDKTLSDTFDYLVVSTGHFSVPFIPEYEGMSSFPGRIMHSHDFRDAEEFRGKNVIVLGSSYSAEDVALQCNKYGAKSVTIGYRHNPMGFKWPKGMKEVHYLDKLDGKKAIFKDGTEQDADVVILCTGYLHHFPFLDESLKLKTHNRLYPPKLYKGVVWQDNHKLLYLGMQDQFHTFNMFDCQAWFARDVIMDKIKMPSDDEIDKDINKWVSMEEKLENPDQMIDFQTEYTKELHNISDYPKIDFELIRKHFKEWEHHKVEDILTYANKSFSSPVTGSVAPVHHTPWEKAMDDSMKTFLNKR
notes: as for B1
With B2, in the data set “purified protein”, the Michaelis constant (Km) came to 44.9 ± 5.6 µM and the kcat was 0.045 ± 0.00167 s⁻¹.

B3: Tmm7211 (Candidatus Pelagibacter sp. HTCC7211; H227A) (protein)
chain: MSKVAIIGAGPCGLSILRAFEHLEKKGEKIPEIVCFEKQESWGGLWNYNWRTGSDQYGDPVPNSMYRYLWSNGPKECLEFADYSFDQHFGKSIPSFPPREVLQDYILGRVSKGNIKNKIKFNTRVINTVYRNDKFEINYQDKVNDKTLSDTFDYLVVSTGHFSVPFIPEYEGMSSFPGRIMHSHDFRDAEEFRGKNVIVLGSSYSAEDVALQCNKYGAKSVTIGYRANPMGFKWPKGMKEVHYLDKLDGKKAIFKDGTEQDADVVILCTGYLHHFPFLDESLKLKTHNRLYPPKLYKGVVWQDNHKLLYLGMQDQFHTFNMFDCQAWFARDVIMDKIKMPSDDEIDKDINKWVSMEEKLENPDQMIDFQTEYTKELHNISDYPKIDFELIRKHFKEWEHHKVEDILTYRNKSFSSPVTGSVAPVHHTPWEKAMDDSMKTFLNKR
notes: as for B1
As for B3, in the data set “purified protein”, the Michaelis-Menten constant (Km) was 41.2 ± 2.3 µM and the catalytic constant (kcat) worked out at 0.0417 ± 0.00333 s⁻¹.

B4: Tmm7211 (Candidatus Pelagibacter sp. HTCC7211; N72A) (protein)
chain: MSKVAIIGAGPCGLSILRAFEHLEKKGEKIPEIVCFEKQESWGGLWNYNWRTGSDQYGDPVPNSMYRYLWSAGPKECLEFADYSFDQHFGKSIPSFPPREVLQDYILGRVSKGNIKNKIKFNTRVINTVYRNDKFEINYQDKVNDKTLSDTFDYLVVSTGHFSVPFIPEYEGMSSFPGRIMHSHDFRDAEEFRGKNVIVLGSSYSAEDVALQCNKYGAKSVTIGYRHNPMGFKWPKGMKEVHYLDKLDGKKAIFKDGTEQDADVVILCTGYLHHFPFLDESLKLKTHNRLYPPKLYKGVVWQDNHKLLYLGMQDQFHTFNMFDCQAWFARDVIMDKIKMPSDDEIDKDINKWVSMEEKLENPDQMIDFQTEYTKELHNISDYPKIDFELIRKHFKEWEHHKVEDILTYRNKSFSSPVTGSVAPVHHTPWEKAMDDSMKTFLNKR
notes: as for B1
As for B4, in “purified protein”, the Km was found to be 34.1 ± 1.0 µM and the kcat turned out to be 0.0317 ± 0.00333 s⁻¹.

B5: Tmm7211 (Candidatus Pelagibacter sp. HTCC7211; N288A) (protein)
chain: MSKVAIIGAGPCGLSILRAFEHLEKKGEKIPEIVCFEKQESWGGLWNYNWRTGSDQYGDPVPNSMYRYLWSNGPKECLEFADYSFDQHFGKSIPSFPPREVLQDYILGRVSKGNIKNKIKFNTRVINTVYRNDKFEINYQDKVNDKTLSDTFDYLVVSTGHFSVPFIPEYEGMSSFPGRIMHSHDFRDAEEFRGKNVIVLGSSYSAEDVALQCNKYGAKSVTIGYRHNPMGFKWPKGMKEVHYLDKLDGKKAIFKDGTEQDADVVILCTGYLHHFPFLDESLKLKTHARLYPPKLYKGVVWQDNHKLLYLGMQDQFHTFNMFDCQAWFARDVIMDKIKMPSDDEIDKDINKWVSMEEKLENPDQMIDFQTEYTKELHNISDYPKIDFELIRKHFKEWEHHKVEDILTYRNKSFSSPVTGSVAPVHHTPWEKAMDDSMKTFLNKR
notes: as for B1
Consider B5, for which, in “purified protein”, the Km stood at 61.1 ± 4.0 µM and the catalytic constant (kcat) is 0.0217 ± 0.00167 s⁻¹.

B6: Tmm7211 (Candidatus Pelagibacter sp. HTCC7211; S203A) (protein)
chain: MSKVAIIGAGPCGLSILRAFEHLEKKGEKIPEIVCFEKQESWGGLWNYNWRTGSDQYGDPVPNSMYRYLWSNGPKECLEFADYSFDQHFGKSIPSFPPREVLQDYILGRVSKGNIKNKIKFNTRVINTVYRNDKFEINYQDKVNDKTLSDTFDYLVVSTGHFSVPFIPEYEGMSSFPGRIMHSHDFRDAEEFRGKNVIVLGSAYSAEDVALQCNKYGAKSVTIGYRHNPMGFKWPKGMKEVHYLDKLDGKKAIFKDGTEQDADVVILCTGYLHHFPFLDESLKLKTHNRLYPPKLYKGVVWQDNHKLLYLGMQDQFHTFNMFDCQAWFARDVIMDKIKMPSDDEIDKDINKWVSMEEKLENPDQMIDFQTEYTKELHNISDYPKIDFELIRKHFKEWEHHKVEDILTYRNKSFSSPVTGSVAPVHHTPWEKAMDDSMKTFLNKR
notes: as for B1
For the molecule B6, in the data set “purified protein”, the Michaelis constant (Km) was found to be 134.8 ± 11.1 µM and the kcat is 0.0167 ± 0.00167 s⁻¹.

B7: Tmm7211 (Candidatus Pelagibacter sp. HTCC7211; D314E) (protein)
chain: MSKVAIIGAGPCGLSILRAFEHLEKKGEKIPEIVCFEKQESWGGLWNYNWRTGSDQYGDPVPNSMYRYLWSNGPKECLEFADYSFDQHFGKSIPSFPPREVLQDYILGRVSKGNIKNKIKFNTRVINTVYRNDKFEINYQDKVNDKTLSDTFDYLVVSTGHFSVPFIPEYEGMSSFPGRIMHSHDFRDAEEFRGKNVIVLGSSYSAEDVALQCNKYGAKSVTIGYRHNPMGFKWPKGMKEVHYLDKLDGKKAIFKDGTEQDADVVILCTGYLHHFPFLDESLKLKTHNRLYPPKLYKGVVWQDNHKLLYLGMQEQFHTFNMFDCQAWFARDVIMDKIKMPSDDEIDKDINKWVSMEEKLENPDQMIDFQTEYTKELHNISDYPKIDFELIRKHFKEWEHHKVEDILTYRNKSFSSPVTGSVAPVHHTPWEKAMDDSMKTFLNKR
notes: as for B1
For B7, in the data set “purified protein”, the Km came out at 9.7 ± 0.5 µM and the catalytic constant (kcat) is 0.0867 ± 0.00333 s⁻¹.

B8: Tmm7211 (Candidatus Pelagibacter sp. HTCC7211; R226A) (protein)
chain: MSKVAIIGAGPCGLSILRAFEHLEKKGEKIPEIVCFEKQESWGGLWNYNWRTGSDQYGDPVPNSMYRYLWSNGPKECLEFADYSFDQHFGKSIPSFPPREVLQDYILGRVSKGNIKNKIKFNTRVINTVYRNDKFEINYQDKVNDKTLSDTFDYLVVSTGHFSVPFIPEYEGMSSFPGRIMHSHDFRDAEEFRGKNVIVLGSSYSAEDVALQCNKYGAKSVTIGYAHNPMGFKWPKGMKEVHYLDKLDGKKAIFKDGTEQDADVVILCTGYLHHFPFLDESLKLKTHNRLYPPKLYKGVVWQDNHKLLYLGMQDQFHTFNMFDCQAWFARDVIMDKIKMPSDDEIDKDINKWVSMEEKLENPDQMIDFQTEYTKELHNISDYPKIDFELIRKHFKEWEHHKVEDILTYRNKSFSSPVTGSVAPVHHTPWEKAMDDSMKTFLNKR
notes: as for B1
In the case of B8, in the data set “purified protein”, the Km amounted to 101.8 ± 8.6 µM and the catalytic constant (kcat) was 0.015 ± 0.00167 s⁻¹.

By Km is commonly meant the substrate concentration at which the rate is half of its maximum. As a reminder, the kcat is the maximal rate divided by the concentration of active sites.
